Measured values from the DeepSol protein solubility set.

Assay: soluble on expression in E. coli; label from the status in PepcDB or PDB records

Sequence | soluble on expression in E. coli
MGSDKIHHHHHHMIKVNRYEIFLDFSFQTGDYKGYEKIEMESDEETVVLDAVGLKIVKAKVNGKEIEFSQDESRVNVKSGSFSGILEVEFEGKVTERKLVGIYKASYKDGYVISTQFEATHARDFIPCFDHPAMKARFKLTVRVDKGLKVISNMPVVREKEENGKVVYEFDETPKMSTYLLYLGIGNFEEIRDEGKIPTIIVATIPGKVQKGRFSMQISRNSIEFYEKYFEIPYQLPKVHLIAIPEFAYGAMENWGAITFRETALLADDSSSVYQKFRVAEVVAHELAHQWFGNLVTLKWWDDLWLNESFATFMSHKAISQLFPSWNFWDYFVLNQTSRALEKDSVSTTHPIEAHVRDPNEVEQMFDDISYGKGASILRMIEAYVGEENFRRGVVNYLKKFSYSNAQGSDLWNSISEVYGSDISPIMADWITKPGYPMVRVSVSGKRVSLEQERFSLIGNVENLLYKIPLTMEVNGKVVTHLLDKERDTMVFEEDVKSLKVNVNRTGFYRVFYYNNSDLVFNSNLSELDKWGIINDYWAFLLAGKIGFKEYERVISKFFNDKDFLPVNELSNELFTLHAINPDKYQGIAKEFHRIQLKNWRNSKDELGRLTYSNILYRLAAIDDEFSLGLSELFRFYGSLDSDTRQGVAVAYAITYEDNSVDELLERFRKETFDEEKLRYLTAMLFFRKPYLVGNTLSLILSGEIKKQDIPLTLSTAAYNPYAKSAVLNWIKMHINFMREAYKGTGILGRRLAEVIPLIGIGAERETEQFFSNLNMPEAERGIGTGLELLKAYSRLK | not soluble
MEEKKEDKFILLKNLYEEWKDCTRCDLHKSRTRVVPGDGNPYSLLVFVGEAPGEEEDRQGKPFVGRAGQLLNRLIEEVLGMKREDVYITNVCKCRPPQNRKPTPIEMRACFPYLKKEIEIIQPKVICCLGATAGEGILGKSLRITKVRGQVFPYPYNPRIKVFLTYHPAYVLRNPKEETTIIKDFEKLKELLTQE | soluble
MAATVDTMSEEVKRLIALYELTPHPASGGWFRETYRSDVQVEAEGFDGKRSVLTMIYYLMQAGQPDPFHRVKSDETFVHNLGGSMKIHMIHPDGSYSCSILGNPLEHPEARHQVVVPRRVWFAQEVDGYCLASVLVAPGFDFKDFSLGKREELIKEYPQHRDVIMRCTSSDP | soluble
MEIRYAKEEEIESIKDIWSYCFNDTESFMKYYFNDKYKSENTVVALDEGKIISSLQLNQYKLLLNSKVYNTSYVVGVSTLPEGRGAGYMNKVMKFTLNELYKKGQLVSILMPIDYRLYRRFGYEHCYDQIEYTINTDDLKNFKSSGKMIKSNLSQIDDLIQIDRTFLNEVNGNVLKDEHYYENLFKEIQSEDGFLYIHEGNEKDGYIVYFLQEDKMFVRELFYKNIDALKSMLKFIYNHNTQCKIVTISTPTIDKIRFILDNPKDSDIKIKPFMMGRVINVKKFIEDIDIENDINSSFNLLIEDKFIDENNGLFKISIQNKKVSVEQLDKKGAEKPQEDFDIKLDINTLTQLSFSYIDVNEAIFLNDIKDVSEETLETLNCIFSKKNNYINEYI | not soluble
MGSDKIHHHHHHMTWLPLNPIPLKDRVSMIFLQYGQIDVIDGAFVLIDKTGIRTHIPVGSVACIMLEPGTRVSHAAVRLAAQVGTLLVWVGEAGVRVYASGQPGGARSDKLLYQAKLALDEDLRLKVVRKMFELRFGEPAPARRSVEQLRGIEGSRVRATYALLAKQYGVTWNGRRYDPKDWEKGDTINQCISAATSCLYGVTEAAILAAGYAPAIGFVHTGKPLSFVYDIADIIKFDTVVPKAFEIARRNPGEPDREVRLACRDIFRSSKTLAKLIPLIEDVLAAGEIQPPAPPEDAQPVAIPLPVSLGDAGHRSS | not soluble
MSQLDNNLSVSVYMKGNVNNHEFEYDGIGGGDPNSGQFSLKTKLRGGKPLPFSYDIITMGFQYGFRAFTKYPEGIADYFKGSFPEAFQWNRRIEFEDGGVINMSSDITYKDKVLHGDVWALGVNFPPNGPVMKNEIVMEEPAEETLTAKNGVLVGFCPKAYLLKDGSYYYGHMTTFYRSKKSGQPLPGFHFIKHRLVKTKVEPGFKMVEQAEYATAHVCDLPKPN | soluble
MSAVKKQRIDLRLTDDDKSMIEEAAAISNQSVSQFMLNSASQRAAEVIEQHRRVILNEESWTRVMDALSNPPSPGEKLKRAAKRLQGM | soluble
AMAKGVGVSNEKLDAVMRVVSEESGIALEELTDDSNFADMGIDSLSSMVIGSRFREDLGLDLGPEFSLFIDCTTVRALKDFMLGSGDAG | soluble
MSLRLLRVVGCPEWVIDHSLAVRKKALELSRELPVDMKLVEEGAILHDIGRCRTSGVEHAVEGARILEGFGYPPEVVRIVERHVGAGIPPEEAKALGLPPGDYMPRTLEEKIVAHADNLINGSDEVDIDFVIKKWSDRLGADHPSIESLKRLHEELLGHL | not soluble
ARTVVLITGCSSGIGLHLAVRLASDPSQSFKVYATLRDLKTQGRLWEAARALACPPGSLETLQLDVRDSKSVAAARERVTEGRVDVLVCNAGLGLLGPLEALGEDAVASVLDVNVVGTVRMLQAFLPDMKRRGSGRVLVTGSVGGLMGLPFNDVYCASKFALEGLCESLAVLLLPFGVHLSLIECGPVHTAFMEKVLGSPEEVLDRTDIHTFHRFYQYLAHSKQVFREAAQNPEEVAEVFLTALRAPKPTLRYFTTERFLPLLRMRLDDPSGSNYVTAMHREVFGDVPAKAEAGAEAGGGAGPGAEDEAGRSAVGDPELGDPPAAPQ | soluble
MTQPSAPAPQIAIDSHDDKAWRDTLLKVAAILCERQPDSPQGYRLRRHALWQSITSTPQAESDGRTPLAAVSADMVADYQSRLASADMALWQQVEKSVLLAPYWLDGHCLSAQTALRLGYKQVADTIRDEVIRFLERLPQLTGLLFNDRTPFLSEQTKQWLAASPDGKVAPVAQIGEESQAARACFAGQGLEAALRYLDMLPEGDPRDQFHRQYLAAQLTEEAGLIQLAQQQYRMLLMIGSQMMVSDWEPSLLTQLEQKFTAEQ | soluble
MKIPSLQSNFNFSAPAGYSAPIAPNRAENAYADYVLDIGKRIPLSAADLSNVYESVIRAVHDSRSRLIDQHTVDMIGNTVLDALSRSQTFRDAVSYGIHNEKVHIGCIKYRNEYELNEESSVKIDDIQSLTCNELYEYDVGQEPIFPICEAGENDNEEPYVSFSVAPDTDSYEMPSWQEGLIHEIIHHVTGSSDPSGDSNIELGPTEILARRVAQELGWSVPDFKGYAEPEREAHLRLRNLNALRQAAMRHEENERAFFERLGTISDRYEASPDFTEYSAVSNIGYGFIQQHDFPGLAINDNLQDANQIQLYHGAPYIFTFGDVDKHNQQ | soluble
MKTLVELPLLPLRDVVVYPHMVIPLFVGREKSIEALEAAMTGDKQILLLAQKNPADDDPGEDGLYRMGTVATVLQLLKLPDGTVKVLVEGEQRGQVERFIEEEGHIRAAVQAIDDANVGEREAEVFTRSLLSQFEQYVQLGKKVPAEVLSSLNSIDEPSRLVDTMAAHMALKIEQKQDILEITDLSSRVEHVLALLDAEIDLLQVEKRIRGRVKKQMERSQREYYLNEQMKAIQKELGDIDEGHNEVEELKKRIDAAGLTKEAHTKATAELNKLKQMSPMSAEATVVRSYIDWLLNVPWKAESKVRHDLAKAEDILDADHYGLEEVKERILEYLAVQKRVKKLKGPVLCLVGPPGVGKTSLAESIARATNRKFVRMALGGVRDEAEIRGHRRTYIGSMPGRLIQKMTKVGVRNPLFLLDEIDKMGSDMRGDPASALLEVLDPEQNHNFNDHYLEVDYDLSDVMFLCTANSMNIPAPLLDRMEVIRLPGYTEDEKVNIAAKYLIPKQVQANGLKKGELTFEEGALRDIIRYYTREAGVRSLERQIAKVCRKAVKEHAKLKRIQAVVSSETLENYLGVRKFRYGLAEQQDQIGQVTGLAWTQVGGELLTIEAAVVPGKGQLTKTGSLGDVMAESITAALTVVRSRAQSLGIAADFHEKRDIHIHVPEGATPKDGPSAGIGMCTALVSAITQIPVRADVAMTGEITLRGQVLAIGGLKEKLLAAHRGGIKTVIIPEENVRDLKEIPDNIKSDLVIKPVKWIDEVLQIALQYAPEPLPDAAPEMVAKDEKREPDSKERIST | not soluble
MSLSDLHTKYMGLTLRSPLVASAGPIQQKVDGVRALADAGVGAIVMYSLFEEQVRHEEARQAEIELEYMDSFAESLSFFPTVASNEGGITERYLAHLEASANAVDIPVIASLNGATNGGWVDTAKRMENAGAAGIECNIYMVPGDLEQSAEEVEDRHVEIVQAVKDAVSVPVAVKLSPFFSALGNMATRLDAAGADALVMFNRFLQPDINVETMQVEPGVWLSSPADARLPLTWIAVLSGRIGASLAASSGVESANDVVKYLLAGADVVMTTSALVRHGAGYATELQKGLESYLQRKEVDLDTLRGTLAVPNDASTAEYERNGYVAALEKAKTTYGEGHHHHHH | not soluble
MLPPGMVAAESDFYLRRLWGLPHEDLKSEPRYLATFTVGINQKANIDACVKKFSENFTIVLFHYDGRVTEWDEFEWSKTAIHISVRKQTKWWYAKRFLHPDIVARYDYIFVWDEDLGVEHFNAEEYVKMVKKHGLEISQPGLEPNQGLTWQMTKRRGDMEVHKITEERPGWCSDPHLPPCAAYVEIMAPVFSRNAWRCVWHVIQNDLVHGWGLDFALRRCVEPAHEKIGVVDSQWVVHQSFPSLGNQGEATDGKAPWQGVRDRCKKEWTMFQSRMANAEKDYFKSLQVEGSSNSTATTI | soluble
MVGGEDMAKKKAPSAKEGEKQQGFKEIIPEVTEKLVEQARKEVARERWVTPHKLAQKMGVKVSIARRVLRILEEEGVLVLFTRNRRSPLYLEHHHHHH | not soluble
GPGSPKLVRINTNEKGITNVQLARAPVNSMSLELFQELNQWMLWLGSNEETKAVIISSAIPTVFSAGLDLVEVHNPKPDRVAVFWQSFQEMWLILNSFPKPIIAAITGNSPAAGCIIAMGCDYRVMARGPKGNTNNNRLYRIGLNETKLGLVAPPWVMPAYAYLLGSRQAERMLQLGETPVADDARNLGLIDEVAADEERAIEVAYQQAERFLSVPQQSRWMARDMMRREYLQMLASDEERNYDTEFFTQFVQSPEVQKNLESYLERLKSCSRK | soluble
MGSDKIHHHHHHMSGGSSMTDQGWAMKGELVLSCNCTVFCPCVLSLGNHAPTEGYCQTWAGFRIDAGHFGEVDLSGLNLGLIMEIPGYMSRGNWTAGLFIDKRASIYAVKALTKIFTGKAGGTTSLLSILVGKFLPITYETRDKMRIFQIPKIIDGAVTPIAGKDREKDTVITNSEYWIAPEIIVARSDKSKMRAFGRNWNFAGRSAEICKLDWRGP | not soluble
MSLGTGRNGGRAIVATGLGQCCWDTLAVVDSYPSPDSKAEAAVWAEQAGGPTATALVALARLGIPCRFAGVVGDDDAGSRIRQALDSEGVDGAFLVTRRRGASQRAFIMIERGSGRRTIVWRRPTGDPLDPREVPDAFLAGSSLLLLDGLMADASLHAAGRARSLGIPVMVDAGRMRPGMLDITRQCDYVVAAEQFFLDLGWDRTPEHFRGLAADLGAPVVTVTLGAAGSLTWSGHEPFHVPAFTVDAVDTTGAGDVFHGGYGYGILQGWSVRETVVFASAMAAMKCRQVGAQQGIPRLPDVLEFLTRRTITVLSNPQTEGHHHHHH | soluble
MLYDVVGVRFKKAGKVYYFDPNQFDISENEFVIVETVRGIEYGKVVITKKQVDENDVVLPLKKVIRIANENDRTIVEENKHAAKEAYQVCQQKVVEHNLDMKLVDVEYTFDRNKIIFYFTADGRIDFRELVKDLAAIFRTRIELRQIGVRDEAKMLGGIGPCGRMLCCSTFLGDFEPVSIKMAKDQNLSLNPAKISGLCGRLMCCLKYENDEYEAAKEQLPDLDQRIQTPHGTGRVIGLNILERLIQVELVDKERIVEYTLDELVNKGLEHHHHHH | soluble
